Our source for the half maximal inhibitory concentration (IC50), neutralization of VSV/EBOV GP values is patent US20240287160A1.

In the assay the target is EBOV GP on infectious virus (Ebola virus , Mayinga) (UniProt Q05320). Put plainly: cell-based or functional assay.

A value given as a limit tells only on which side of the number the result lay.

Chain of UniProt Q05320 (Q05320 33-676): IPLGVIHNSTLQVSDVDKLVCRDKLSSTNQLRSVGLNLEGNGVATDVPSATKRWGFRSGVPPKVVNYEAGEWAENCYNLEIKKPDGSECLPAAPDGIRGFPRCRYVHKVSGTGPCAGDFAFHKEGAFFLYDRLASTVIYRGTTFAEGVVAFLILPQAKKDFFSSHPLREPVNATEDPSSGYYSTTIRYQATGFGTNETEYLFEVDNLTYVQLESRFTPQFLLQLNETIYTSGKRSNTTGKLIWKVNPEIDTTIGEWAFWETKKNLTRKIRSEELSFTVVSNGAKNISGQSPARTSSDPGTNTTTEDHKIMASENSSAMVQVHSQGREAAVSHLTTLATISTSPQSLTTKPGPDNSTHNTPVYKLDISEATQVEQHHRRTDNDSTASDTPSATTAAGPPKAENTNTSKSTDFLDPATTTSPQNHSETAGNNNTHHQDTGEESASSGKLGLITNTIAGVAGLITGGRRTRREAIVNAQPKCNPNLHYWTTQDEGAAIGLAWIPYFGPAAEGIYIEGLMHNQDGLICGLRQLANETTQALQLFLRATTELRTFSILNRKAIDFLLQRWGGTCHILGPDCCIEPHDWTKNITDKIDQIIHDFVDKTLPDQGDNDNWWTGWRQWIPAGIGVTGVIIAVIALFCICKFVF

B1: rEBOV-515 (recombinant wild-type IgG1) (antibody, V domains shown)
VH: QVQLHESGPGLVKPSQTLSLTCTVSGGSINSAGYYWTWIRQHPGKGLEWIGYIDYTGRTYYNPSLESRVIISIDTSKNHFSLRLTSVSAADTAVYYCARESSWVSELGRDNWGQGTLVTVSS
VL: EIVMTQSPATLPVSPGEGATLSCRASQSVFTNLAWYQQKPGQAPRLLIYDASTRATGIPARFSGSGSGTEFTLTISSLQSEDFAVYYCQQYNNWPRTYGQGTRVEVK
Regarding B1, the half maximal inhibitory concentration (IC50), neutralization of VSV/EBOV GP is less than 1.5 µg/mL.

B2: rEBOV-442 IgG1 (antibody, V domains shown)
VH: EVQLVESGGGLVKPGGSLRLSCTGSGGTGFTFKYAGMSWVRQAPGKGPEWIGRIKSRIDGGTTDYAAPVKDRFIVSRDDSRNTLYLQMNSLKTEDTAVYYCATGSGKGPSASFGESYYYYDFINVWGKGTTVTVSS
VL: ESVLTQSPGTLSLSPGERATLSCRASQSISRKYLAWYQQKPGQAPRLLIYGSSSRATGIPDRFSGSGSGTDFTLTISRLEPEDFAVYYCHQYESSPWTFGQGTKVEIK
B2: the half maximal inhibitory concentration (IC50), neutralization of VSV/EBOV GP is less than 1.5 µg/mL.
